# Laboratory results from US20120083001A1.
# Read-outs that look alike come from different tables or passages of the source.
# Tests used:
# [1] = target: β1 adrenergic receptor (rat) (UniProt P18090); test: cell-based or functional assay
# [2] = target: β1 adrenergic receptor (rat) (UniProt P18090); test: cell-based or functional assay; remark: listed apart in the source
# Sequence of β1 adrenergic receptor (rat) (P18090 whole entry): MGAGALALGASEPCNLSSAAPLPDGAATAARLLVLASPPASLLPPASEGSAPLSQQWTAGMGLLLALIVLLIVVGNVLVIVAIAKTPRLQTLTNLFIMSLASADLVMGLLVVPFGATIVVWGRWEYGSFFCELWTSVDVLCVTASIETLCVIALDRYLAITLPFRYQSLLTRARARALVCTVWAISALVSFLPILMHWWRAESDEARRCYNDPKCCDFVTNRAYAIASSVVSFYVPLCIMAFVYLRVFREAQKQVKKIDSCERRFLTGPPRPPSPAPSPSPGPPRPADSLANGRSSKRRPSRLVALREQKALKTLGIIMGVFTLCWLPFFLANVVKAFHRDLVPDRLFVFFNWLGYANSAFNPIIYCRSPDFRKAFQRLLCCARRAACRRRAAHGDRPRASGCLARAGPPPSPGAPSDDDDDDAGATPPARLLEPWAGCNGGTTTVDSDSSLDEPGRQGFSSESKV
substance,measurement,setting,value
Gαi (C351G) (from UniProt B2RSH2 2-354),Change Level in Current Density [pA/pF] (ISO 30 nM against no ISO),[1],-16.4 pA/pF
same,Current Change Level [nA],[1],-0.2 nA
same,"membrane current value immediately after the pulse, ISO not supplied (whole-cell patch clamp)",[1],-0.2 nA
same,"membrane current value, ISO supplied (whole-cell patch clamp)",[1],0.5 nA
same,Change Level in Current Density [pA/pF] (ISO 30 nM against no ISO),[2],-9.14 pA/pF
